Assay results reported in patent US20190256588A1 (BEIJING HANMI PHARM, published 2019).

Assays:
Test in all cases: ELISA, cytokine coated on plate at 1 µg/mL
recombinant human IL-21 = recombinant human IL-21 (human, UniProt Q9HBE4 32-162, limits assumed)
Description: (§1) Recombinant human IL-17A, IL-17B, IL-17C, IL-17D, IL-17E, IL-17F, IL-1, IL-2, IL-6, IL-8, IL-21, IL-22, IL-23, IFN-g and TNFα (purchased from Sino Biological Inc. or R&D systems) were coated on a 96-well high-absorbing ELISA plate with a carbonate buffer solution with pH 9.6, the coating concentration was 1 μg/mL, the coating amount was 100 μL per well, and the coating was carried ax 4° C. out overnight. The plate was washed five times with PBST and blocked with 300 μL/well of PBST containing 1% BSA and incubated at 25° C. for 1 hour. The plate was washed five times with PBST. […] The plate was washed five times with PBST. Then, horseradish peroxidase-labeled anti-human IgG antibody (Chemicon, Catalog Number AP309P) 1:2000 diluted in PBST containing 1% BSA was added, 100 μL was added to each well, incubated at 25° C. for 1 hour. The plate was washed five times with PBST. 100 μL/well of colorimetric substrate TMB was added and incubated at room temperature for 10 minutes. Color development was terminated by adding 100 μL/well of 1 M H₂SO₄. The absorbance at 450 nm was read on a microplate reader.
(§2) Recombinant human IL-17A, IL-17B, IL-17C, IL-17D, IL-17E, IL-17F, IL-1, IL-2, IL-6, IL-8, IL-21, IL-22, IL-23, IFN-g and TNFα (purchased from Sino Biological Inc. or R&D systems) were coated on a 96-well high-absorbing ELISA plate with a carbonate buffer solution with pH 9.6, the coating concentration was 1 μg/mL, the coating amount was 100 μL per well, and the coating was carried at 4° C. out overnight. Washed five times with PBST. Blocked with 300 μL/well of PBST containing 1% BSA and incubated at 25° C. for 1 hour. Washed five times with PBST.

recombinant human TNFα = recombinant human TNFα (human, UniProt P01375 77-233)
recombinant human TNFα, sequence (P01375 77-233 limits assumed): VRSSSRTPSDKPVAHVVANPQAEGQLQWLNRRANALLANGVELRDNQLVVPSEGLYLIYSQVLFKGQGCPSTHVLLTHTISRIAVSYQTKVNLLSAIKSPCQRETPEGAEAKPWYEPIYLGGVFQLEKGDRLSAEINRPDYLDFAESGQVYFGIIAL
Description: as §1, §2

recombinant human IL-2 = recombinant human IL-2 (human, UniProt P60568 21-153)
recombinant human IL-2, sequence (P60568 21-153 limits assumed): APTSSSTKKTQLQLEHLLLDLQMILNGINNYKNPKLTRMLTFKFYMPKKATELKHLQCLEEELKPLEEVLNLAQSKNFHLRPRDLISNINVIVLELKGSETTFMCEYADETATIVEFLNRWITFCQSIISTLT
Description: as §1, §2

recombinant human IL-17B = biological target: T1, recombinant human IL-17B (human, UniProt Q9UHF5 21-180)
T1 sequence (looked up): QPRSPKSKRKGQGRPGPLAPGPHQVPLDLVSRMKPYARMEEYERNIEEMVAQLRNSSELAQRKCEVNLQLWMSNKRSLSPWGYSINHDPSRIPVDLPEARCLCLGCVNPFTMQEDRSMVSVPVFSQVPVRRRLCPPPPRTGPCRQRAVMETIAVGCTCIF
Description: as §1, §2

recombinant human IL-17C = biological target: T2, recombinant human IL-17C (human, UniProt Q9P0M4 19-197)
T2 sequence (looked up): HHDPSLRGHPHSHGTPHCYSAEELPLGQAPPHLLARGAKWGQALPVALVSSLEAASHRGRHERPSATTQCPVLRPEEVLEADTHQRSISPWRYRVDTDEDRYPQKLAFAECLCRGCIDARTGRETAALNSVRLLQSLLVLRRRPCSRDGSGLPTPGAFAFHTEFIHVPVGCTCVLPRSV
Description: as §1, §2

recombinant human IL-8 = recombinant human IL-8 (human, UniProt P10145 28-99, limits assumed)
recombinant human IL-8, sequence (P10145 28-99 limits assumed): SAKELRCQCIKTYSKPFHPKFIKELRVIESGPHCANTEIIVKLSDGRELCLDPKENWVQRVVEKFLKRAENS
Description: as §1, §2

recombinant human IL-17D = biological target: T3, recombinant human IL-17D (human, UniProt Q8TAD2 16-202, limits assumed)
T3 sequence (looked up): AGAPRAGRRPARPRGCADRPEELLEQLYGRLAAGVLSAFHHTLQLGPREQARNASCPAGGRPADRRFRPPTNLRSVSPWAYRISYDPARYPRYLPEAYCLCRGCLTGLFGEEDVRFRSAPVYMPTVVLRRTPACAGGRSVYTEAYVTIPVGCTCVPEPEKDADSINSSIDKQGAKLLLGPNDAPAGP
Description: as §1, §2

recombinant human IFN-g = biological target: T4, recombinant human IFN-g (human, UniProt P01579 24-166, limits assumed)
T4 sequence (looked up): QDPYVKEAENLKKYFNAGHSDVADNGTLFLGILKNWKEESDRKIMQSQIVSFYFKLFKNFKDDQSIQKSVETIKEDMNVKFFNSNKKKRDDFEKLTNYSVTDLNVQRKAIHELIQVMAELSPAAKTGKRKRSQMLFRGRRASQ
Description: as §1, §2

recombinant human IL-6 = recombinant human IL-6 (human, UniProt P05231 30-212)
recombinant human IL-6, sequence (P05231 30-212 limits assumed): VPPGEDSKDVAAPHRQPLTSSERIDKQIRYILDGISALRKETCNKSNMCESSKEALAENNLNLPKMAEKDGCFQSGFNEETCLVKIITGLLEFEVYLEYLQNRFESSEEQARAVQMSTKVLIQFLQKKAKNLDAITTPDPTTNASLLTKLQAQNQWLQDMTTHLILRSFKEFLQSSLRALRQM
Description: as §1, §2

recombinant human IL-23 = biological target: T5, recombinant human IL-23 (human, UniProt Q9NPF7 20-189; P29460 23-328)
T5 sequence (looked up) 1: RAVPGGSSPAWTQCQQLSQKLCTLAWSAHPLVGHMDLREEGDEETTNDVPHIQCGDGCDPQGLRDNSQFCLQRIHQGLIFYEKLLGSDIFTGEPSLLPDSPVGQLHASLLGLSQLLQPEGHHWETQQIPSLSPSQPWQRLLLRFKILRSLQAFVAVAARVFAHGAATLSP
T5 sequence (looked up) 2: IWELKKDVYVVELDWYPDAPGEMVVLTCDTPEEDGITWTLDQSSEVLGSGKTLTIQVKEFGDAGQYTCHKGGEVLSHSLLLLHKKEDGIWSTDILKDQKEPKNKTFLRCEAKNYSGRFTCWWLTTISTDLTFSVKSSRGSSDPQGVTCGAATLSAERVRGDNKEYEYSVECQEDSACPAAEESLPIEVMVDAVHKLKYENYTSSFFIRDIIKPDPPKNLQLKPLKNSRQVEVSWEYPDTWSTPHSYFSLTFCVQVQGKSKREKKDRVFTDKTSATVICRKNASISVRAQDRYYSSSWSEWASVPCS
Description: as §1, §2

recombinant human IL-22 = biological target: T6, recombinant human IL-22 (human, UniProt Q9GZX6 34-179)
T6 sequence (looked up): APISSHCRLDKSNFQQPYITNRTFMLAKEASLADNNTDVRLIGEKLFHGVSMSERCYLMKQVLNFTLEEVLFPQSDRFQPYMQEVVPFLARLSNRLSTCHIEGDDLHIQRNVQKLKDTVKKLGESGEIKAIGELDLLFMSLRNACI
Description: as §1, §2

Measured: binding result

recombinant human IL-21, sequence (Q9HBE4 32-162 limits assumed): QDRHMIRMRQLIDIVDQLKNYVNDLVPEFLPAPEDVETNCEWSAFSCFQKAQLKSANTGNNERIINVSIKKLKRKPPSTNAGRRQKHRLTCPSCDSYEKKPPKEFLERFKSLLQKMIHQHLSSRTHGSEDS

B1: anti-human IL-17A chimeric monoclonal antibody (antibody, human IgG1, kappa, V domains shown)
VH: DVQVQESGPGLVKPSQSLSLTCTVTGNSITSYYAWNWIRQFPGNKLEWMGYITYSGTTSYNPSLKSRISITRDTSKNQFFLQLNSVTTEDTATYYCAREEYDDIYAVDYWGQGTSVTVSS
VL: IIVMTQTPLSLPVSLGDQASISCRSSQSLVHSNGNTYLHWYLQKPGQSPKLLIYKVYNRFSGVPDRFSGSGSGTDFTLKISRVEAEDLGVYFCSQSTHFPTFGGGTKLEIKR
notes: expressed in 293F cells; also called Anti-human IL-17A Chimeric Antibody; chimeric anti-human IL-17A monoclonal antibody
no binding: all assays above
